Results reported in the supplement of paper PMC9170038.

System: K4 kissing-loop RNA reporter
Test: apparent KD of K4 kissing-loop reporter; higher = weaker reporter binding
Conditions: Eterna round: R107
Experimental: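 RNA-MaP round R107: designed RNA switches with theophylline, tryptophan, arginine or FMN aptamers are transcribed on-chip within common flanks. They are titrated with a labelled K4 kissing-loop RNA reporter in RNA-MaP buffer (100 mM Tris pH 7.5, 80 mM KCl, 4 mM MgCl2), without ligand or with the indicated ligand. Median apparent KD per design.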

[1] = input ligand: theophylline 20 uM
[2] = input ligand: tryptophan 2.4 mM
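Further: bound reporter read as fluorescence of individual clusters on recovered sequencing chips by microscopy, with normalized cluster intensities fitted with a binding model.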

Sequence	apparent KD of K4 kissing-loop reporter (input ligand: FMN 200 uM) [nM]	apparent KD of K4 kissing-loop reporter (input ligand: arginine 13.2 mM) [nM]	apparent KD of K4 kissing-loop reporter (input ligand: none) [nM]	apparent KD of K4 kissing-loop reporter [1] [nM]	apparent KD of K4 kissing-loop reporter [2] [nM]
AGACUACUGAUAGGAUAUAACAUACUAGCUCGUAUACCAAAGGUAUACGAGCACCUUCUAGUGAUGUUAGAAGGGUCGGUAGUCA [Omei KL FMN B Exc B v3]	301	104	108	109	117
AGACUACUGAUAGGAUAUAACAUCCUAGUCGUAUACCGAAAGGUAUACGAUAUCCUUCUAGUGAUGUUAGAAGGGUCGGUAGUCA [Omei KL FMN B Exc B v10]	113	85.5	103	88.3	98.4
AGAGAUAUAUGAGGAUAUGGGUUAGUUAAUGAGUUAGUUUUAGUGUUGUUUGGUUAGUGAUGUUAUUUAGAAGGCGUGAGUGAUG [cqqbmullin]	98.4	60.8	70	112	66.2
AGAGUCACAUAAGGAUAUCCCUUGACGGGAACCAAGUGAUGUUUGGUUAGACGACCUCUUAUCACGGGAGAAGGUAUAUUUGUAU [theeternabot_sameState_KL_FMN_B_27]	724	580	889	676	612
AGAGUUAAUUAGUCUUUUUUAACAUUAAGUCAGGAUAUCGUAUAUUCGAGAAGGGACACAUGCUAGUGAUGUUAGCUAUUUCUCA [JR_ExcFMNA_Sub018]	50.2	90.5	56.5	86.7	47.2
AGAGUUAAUUAGUCUUUUUUUACAUUAAGUCAGGAUAUCGUAUAUUCGAGAAGGGACACAUGCUAGUGAUGUUAGCUAUUUCUCA [JR_Nu_ExcFMNA_Sub019]	39.7	79.6	47.5	71.7	44.4
AGAGUUAUAUGAGGAUAUGAGAUAGUUAAUGAGUGAGUUAUAGUGUAGUUUGGUUAGUGAUGUUAUUUAGAAGGCGUGAGUGAUG [reefmullin]	133	76.5	115	100	83.1
AGAGUUAUGCGAGGAUAUGCAGUUAGUACUCAAAGAGUACUAACAGCAGAGUGAUGUUCUGUGAAAGCAGAAGGUGCAUAACUCA [Omei KL FMN B SS B v7]	153	630	1120	641	671
AGAGUUAUGCGAGGAUAUGCAGUUAGUACUCAAAGAGUACUAACGCAGAGUGAUGUUCUGUGAAACGCAGAAGGUGCAUAACUCA [Omei KL FMN B SS B v4]	161	509	549	480	485
AGAGUUGACGAAAAGUCAACUCUACGAGAAGGAGCGCACGAAAGUGCAGGUAGGUCGCUCAGUCCAGUGAUGUUGGAACAUAAAA [#OpenEnded 8]	59.7	101	68.8	84.1	59.2
AGAGUUUUAUGAGGAUAUGAGAUAGUUAAUGAGUGAGUUAUAGUGUAGUUUGGUUAGUGAUGUUAUUUAGAAGGCGUGAGUGAUG [zzfzmullin]	205	92.9	143	101	108
AGAUACUUUAUCGCUAGAGGCAUUGCAGAUACCAGCCUAUCUAGAGGCCCUUGGCAGCUGGAGUGAUGUUUCGGCUUAGCUAAAG [theeternabot_exclusion_KL_Theo_A_32]	402	317	323	348	393
AGAUCUAAGCUGAGUUAGUCACCAUAAAGCAAGGAUAUUCCACGAAGAAGAAGGUGCAUCAUCCAUAGUGAUGUUAUGGCACGGG [theeternabot_sameState_KL_FMN_A_7]	687	548	807	672	574
AGAUGACACCGAGGAUAUCCUAAUAUGGGUGAUGUUAGCGAUGUUGAAGGUGUAGUGAUGUUAUGCGGAGAAGGCGGUGUUGUUU [BDazzled - #21 - Exc. FMN B]	104	103	216	139	132
AGAUGUCCCUGGGAUACCAGUCGGAGUCUCAGAGCUCGGAGUGAUGUUCUGGGAUGUUUCGGCCCUUGGCAGCUCUGGGACUCCC [#2 Exclusion - Theophylline B Attempt #25 (HarryS)]	603	722	847	708	909
AGAUGUCUCUGGGAUACCAGUCGGAGUCUCAGGGCUCGGAGUGAUGUUCUGGGAUGUUUCGGCCCUUGGCAGCCCUGGGACUCCC [#2 Exclusion - Theophylline B Attempt #27 (HarryS)]	724	514	649	740	542
AGCAGUGAUGUUGCAUUUAUAAAGACCGAUACCAGUAUCGAUAGAUACCCUUGGCAGCGGAUUUCCGCAACGACUAGGAAACUAG [Ex Theophylline A K4 13]	404	423	399	466	270
AGCAGUGAUGUUGCUCAAUUUACAGGUGAUACCAGAGGUCAGUCUCUCCCUUGGCAGCACUUCAUACGAUGAUGUUUUAUCGGCC [theeternabot_sameState_KL_Theo_A_50]	374	321	370	378	313
AGCGGCCAGUCGGCCGCCACUCCAGGCAGUGAUGUUGCUAAGUUUCUACUAGAGUGAUGUUCUAAGAGGACCGGGACUGACGUAU [Exclusion Tryptophan B Gf 8]	178	225	199	216	145
AGCUCAGAGUGACUCGAUAAGAGUCACAAACGAGGACCGGUACGGCCGCCACUCGAAAUAACGAGAGUGAUGUUCUCGCUGGGCA [FiskerMod 1 - Jieux - Same State Tryptophan A]	829	463	1010	540	296
AGCUCAGAGUGACUCGAUAAGAGUCACAAACGAGGACCGGUACGGCCGCCACUCGAAAUAAUGGGAGUGAUGUUCUCACUGAGCA [#SwitchBubble 3 #StaticStem #K4Late]	1030	719	1190	796	384

Sequence	apparent KD of K4 kissing-loop reporter (input ligand: FMN 200 uM) [nM]	apparent KD of K4 kissing-loop reporter (input ligand: arginine 13.2 mM) [nM]	apparent KD of K4 kissing-loop reporter (input ligand: none) [nM]	apparent KD of K4 kissing-loop reporter [1] [nM]	apparent KD of K4 kissing-loop reporter [2] [nM]
AGCUGUGGCAGAAGGAGCGACAGUUAUUCUGAUAGUACUCUGAGUGAUGUUCAGAACGACUGUCAGGUAGGUCGCUGUCACAGCU [#01 K4 Arginine B Exclusion]	172	159	175	153	169
AGGAGCGUGGGAUGGAAAUCGCACGCUCCUCGAGGACCGGUACGGCCGCCACUCGCUCGCGCCGAGUGAUGUUCGGCCGGCGAAG [#2 Same State - Tryptophan A Attempt #15 (HarryS)]	579	194	128	129	226
AGGAUGUAGUGAUGUUAUAUAAGAAGUAGACGAGGACCGGUACGGCCGCCACUCGAAACGGCUACUAGCGCGUUGCGAGGUGUGC [ExTryptoA.Cg]	576	435	476	468	326
AGGCACGAGCAAGGAUAUCGAGUAGAGUGAUGUUCUGCCUGGGUUGGCUCGCAAGAGCCUUCUCAGCGAGAAGGUGCUCGUGCCU [#2 Same State - FMN A Attempt #18 (HarryS)]	176	602	946	595	640
AGGCGCUUAAGUCAGUGAUGUUGAUUAUAUCGAGGACCGGUACGGCCGCCACUCGGCUUUCAUCCGCCAUCGUAGUCCUAAAACC [theeternabot_sameState_KL_Trp_A_25]	498	490	559	534	549
AGGCGGCAAGAUUGAUUGGAAAGUAAUCGACGAGGACCGGUACGGCCGCCACUCGAACACCAGUGAUGUUGGUCUGGCUUAAGCC [Exclusion Tryptophan A GF 20]	430	369	435	477	363
AGGCGGCAUGAUUGACUGAAAAGAAAUCAACGAGGACCGGUACGGCCGCCACUCGAACACCAGUGAUGUUGGUAUGGGAUAACCC [Exclusion Tryptophan A GF 19]	178	188	184	173	159
AGGGUUUAACACGAUACCAGCCUGGAGGCCAGUGAUGUUGGCCGAUUUGAACAGAAUUAAGGCCCUUGGCAGCGUCUUUAAAACC [Biarat]	143	152	167	165	153
AGGGUUUAGGACGAUACCAGCCUGGAGGCCAGUGAUGUUGGCCGAUUUGAACAGAAUUAAGGCCCUUGGCAGCGUAUCUAAAACC [Esamaza]	280	291	320	161	259
AGGUAGUCCCUUGUUGUCAUCGAAGAUGAACGAGGACCGGUACGGCCGCCACUCGGAGUGAUGUUCCGAUGGCUGCAAAAUAAAA [MatMod 23 - Jieux - Exclusion - Tryptophan A]	108	89	97.2	85.9	103
AGGUCACAACUACAGUGAUGUUGUGGAGAGCAGGAUAUGCAGAAAUGCAGAAGGGCUCGCUCUCUAGUGACCGAUCAAAAGAUCA [Omei KL FMN A SS A v9]	1360	311	669	545	532
AGGUCACGAGGAAGGAGCGCCCUGACAGGUUGCUGCCGUGGGCAGUGAUGUUGCUCAGUCCGGCAGGUAGGUCGCCUCGUGACCU	151	174	147	111	148
AGGUCAGCAGGAAGGAGCGCCCUGACAGGUUGCUGCCGUGGGCAGUGAUGUUGCUCAGUCCGGCAGGUAGGUCGCCUGCUGACCU	204	157	153	188	156
AGGUCCGAGCCCGCAAGGGCUCGGACCUGUUAGGAUAUGACGUUAUUCAGAAGGGAUGGGUGGAGUGAUGUUCCACCCGCGAGGG [#2 Same State - FMN A Attempt #12 (HarryS)]	132	131	202		149
AGGUCCGAGCCCGGAAGGGCUCGGACCUGUUAGGAUAUGACGUUAUUCAGAAGGGAUGGGUGGAGUGAUGUUCCACCCGAGAGGG [#2 Same State - FMN A Attempt #17 (HarryS)]	106	103	100	108	98.3
AGGUCCGAGCCUGCAAAGGCUCGGACCUGUUAGGAUAUGACGUUAUUCAGAAGGGAUGGGUGGAGUGAUGUUCCACCCGCAAGGG [#2 Same State - FMN A Attempt #7 (HarryS)]	142	105	120	98.4	113
AGGUCCGAGCCUGUAAAGGCUCGGACCUGUUAGGAUAUGACGUUAUUCAGAAGGGAUGGGUGGAGUGAUGUUCCACCCGCAAGGG [#2 Same State - FMN A Attempt #5 (HarryS)]	107	103	111	116	104
AGGUGAGACUGAAGGAGCGAUCGCGCCAGUGAUGUUGGUGAGCAUGACAAAGUCAUGCACGAUCAGGUAGGUCGCAGUCUUACUC [Omei KL Arginine B SS B v2]	199	156	206	188	185
AGGUUUUGAUUAGGAUAUGCACUGAGGAGGAGAAUAUAGUGAUGUUAUAUAAGAGGAAGGAGAAGAGUAGAAGGGAUUGAGGUUU [SSFMNB.Q]	156	285	191	197	190
AGUAAUCUCACGGCCGCCACUGUUUAUUGUUUUUAUAGUUAUAAAUCUUGCCAGUGAUGUUGGUACAGGACCGGGUGAGUUAAUA [#25 K4 Tryptophan B Same State]	357	360	402	353	316
